Experiments:
[1] = molecular target: HLA-A*02 on target cells (human); experiment: cell-based or functional assay
[2] = molecular target: Epidermal Growth Factor Receptor (EGFR) on target cells (human), P00533; experiment: cell-based or functional assay

B1: HLA-A*02 PA2.1 scFv LIR1 inhibitor (C2162) (scFv, part only; not given: LIR-1 hinge, transmembrane and intracellular, part only)
scFv, part: QVQLVQSGAEVKKPGSSVKVSCKASGYTFTSYHIHWVRQAPGQGLEWIGWIYPGNVNTEYNEKFKGKATITADESTNTAYMELSSLRSEDTAVYYCAREEITYAMDYWGQGTLVTVSSGGGGSGGGGSGGGGSGGDIQMTQSPSTLSASVGDRVTITCRSSQSIVHSNGNTYLEWYQQKPGKAPKLLIYKVSNRFSGVPARFSGSGSGTEFTLTISSLQPDDFATYYCFQGSHVPRTFGQGTKVEVK
Human Blocker EC50 (ng), with activator CT486; HLA-A*02 mRNA titrated into target cells [1]: 4000 ng
Human Blocker EC50 (ng), with activator CT487; HLA-A*02 mRNA titrated into target cells [1]: 2900 ng
Human Blocker EC50 (ng), with activator CT488; HLA-A*02 mRNA titrated into target cells [1]: 3500 ng
Human Blocker EC50 (ng), with activator CT489; HLA-A*02 mRNA titrated into target cells [1]: 3200 ng
selectivity ratio (humanized blocker C2162 paired with CT486) [1]: 17
selectivity ratio (humanized blocker C2162 paired with CT487, first mention) [1]: 5
selectivity ratio (humanized blocker C2162 paired with CT487 as printed, second mention) [1]: 5
selectivity ratio (humanized blocker C2162 paired with CT489) [1]: 24.2

B2: CT-487 EGFR scFv CAR activator (scFv, not shown: small tags and cut ends)
scFv: QVQLVQSGAEVKKPGASVKVSCKASGYTFTSHWMHWVRQAPGQGLEWIGEFNPSNGRTNYNEKFKSKATMTVDTSTNTAYMELSSLRSEDTAVYYCASRDYDYDGRYFDYWGQGTLVTVSSGGGGSGGGGSGGGGSGGDIQMTQSPSSLSASVGDRVTITCSASSSVTYMYWYQQKPGKAPKLLIYDTSNLASGVPSRFSGSGSGTDYTFTISSLQPEDIATYYCQQWSSHIFTFGQGTKVEIK
Activator EC50 (ng); EGFR mRNA titrated into EGFR negative target cells [2]: 3500 ng

B3: HLA-A*02 PA2.1 scFv LIR1 inhibitor (C1765) (scFv, part only; not given: LIR-1 hinge, transmembrane and intracellular, part only)
scFv, part: DVLMTQTPLSLPVSLGDQASISCRSSQSIVHSNGNTYLEWYLQKPGQSPKLLIYKVSNRFSGVPDRFSGSGSGTDFTLKISRVEAEDLGVYYCFQGSHVPRTSGGGTKLEIKGGGGSGGGGSGGGGSGGQVQLQQSGPELVKPGASVRISCKASGYTFTSYHIHWVKQRPGQGLEWIGWIYPGNVNTEYNEKFKGKATLTADKSSSTAYMHLSSLTSEDSAVYFCAREEITYAMDYWGQGTSVTVSS
Mouse Blocker EC50 (ng), with activator CT486; HLA-A*02 mRNA titrated into target cells [1]: 4700 ng
Mouse Blocker EC50 (ng), with activator CT487; HLA-A*02 mRNA titrated into target cells [1]: 3500 ng
Mouse Blocker EC50 (ng), with activator CT488; HLA-A*02 mRNA titrated into target cells [1]: 4700 ng
Mouse Blocker EC50 (ng), with activator CT489; HLA-A*02 mRNA titrated into target cells [1]: 4200 ng
selectivity ratio (mouse blocker C1765 paired with CT486) [1]: 15.7
selectivity ratio (mouse blocker C1765 paired with CT487, first mention) [1]: 18.4
selectivity ratio (mouse blocker C1765 paired with CT487 as printed, second mention) [1]: 21.2
selectivity ratio (mouse blocker C1765 paired with CT489) [1]: 21.6
shift of CAR EMAX (Jurkat NFAT-luciferase, with EGFR CAR CT479, HeLa target cells) [1]: > 5 fold

Reference: patent US20230277593A1
